From patent publication US20160280766A1 (UNIVERSITY OF MARYLAND BALTIMORE, published 2016) come the findings set out here.

Positions count from the first letter of the chain named. In names and notes the source's numbering stands.

Sequences and labels used below:
T1: FcγRIIB (human, UniProt P31994 43-217, limits assumed)
T1 construct: also called CD32; not shown: His-tag fused to the C-terminus
T1 sequence (looked up): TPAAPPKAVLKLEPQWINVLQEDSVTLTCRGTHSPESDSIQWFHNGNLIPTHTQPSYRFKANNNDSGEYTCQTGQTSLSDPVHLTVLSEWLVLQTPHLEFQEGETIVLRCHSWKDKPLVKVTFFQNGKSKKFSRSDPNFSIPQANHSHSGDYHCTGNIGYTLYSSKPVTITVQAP

T2: FcγRIIA (human, UniProt P12318 34-217, limits assumed)
T2 construct: also called CD32; not shown: His-tag fused to the C-terminus
T2 sequence (looked up): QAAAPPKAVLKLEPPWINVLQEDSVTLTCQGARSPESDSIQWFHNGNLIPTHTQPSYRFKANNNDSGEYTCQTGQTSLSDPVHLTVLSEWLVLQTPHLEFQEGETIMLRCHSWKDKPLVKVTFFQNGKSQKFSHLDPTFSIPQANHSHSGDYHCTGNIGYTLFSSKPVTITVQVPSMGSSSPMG

B1: Fc-226^hg/290^hg/E333A/K334A (other)
chain: EPKSCDKTHTNSTCPAPELLGGPSVFLFPPKPKDTLMISRTPEVTCVVVDVSHEDPEVKFNWYVDGVEVHNAKTNSTEEQYNSTYRVVSVLTVLHQDWLNGKEYKCKVSNKALPAPIAATISKAKGQPREPQVYTLPPSREEMTKNQVSLTCLVKGFYPSDIAVEWESNGQPENNYKTTPPVLDSDGSFFLYSKLTVDKSRWQQGNVFSCSVMHEALHNHYTQKSLSLSPGK
modifications: N-linked glycans at Asn297 and at engineered Asn226 and Asn290 (IgG1 heavy chain positions)
B2: IgG1 Fc variant Fc-226^hg/290^hg/S298A/E333A/K334A (other)
chain: B1 chain with S83A
modifications: N-linked glycans at Asn297 and at engineered Asn226 and Asn290 (IgG1 heavy chain positions)
B3: IgG1 Fc variant Fc-226^hg/290^hg/S298A (other)
chain: B1 chain with S83A, A118E, A119K
modifications: N-linked glycans at Asn297 and at engineered Asn226 and Asn290 (IgG1 heavy chain positions)
B4: IgG1 Fc variant Fc-226^hg/290^hg (other)
chain: B1 chain with A118E, A119K
modifications: N-linked glycans at Asn297 and at engineered Asn226 and Asn290 (IgG1 heavy chain positions)
notes: Both CPP (226-228) and KPR (290-292) replaced by NST
B5: Fc-S298A/E333A/K334A (other)
chain: B1 chain with N11C, S12P, T13P, N75K, S76P, T77R, S83A
modifications: N-linked glycan at Asn297
B6: IgG1 Fc variant Fc-290^hg (other)
chain: B1 chain with N11C, S12P, T13P, A118E, A119K
modifications: N-linked glycans at Asn297 and at engineered Asn290 (IgG1 heavy chain positions)
notes: KPR at 290-292 replaced by NST

T4 sequence (P08637 17-208 limits assumed): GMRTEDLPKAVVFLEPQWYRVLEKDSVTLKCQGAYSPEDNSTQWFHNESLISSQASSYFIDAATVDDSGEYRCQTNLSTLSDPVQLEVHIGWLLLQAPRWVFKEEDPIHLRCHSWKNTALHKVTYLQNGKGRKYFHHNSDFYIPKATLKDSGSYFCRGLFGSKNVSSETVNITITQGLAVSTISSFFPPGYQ

The target of one assay is T3, FcγRIIIA having a Val residue at polymorphic site 158 (human, UniProt P08637 17-208).
T3 construct: also called FcγRIIIA-158V; CD16a; not shown: His-tag fused to the C-terminus
T3 sequence (P08637 17-208 F176V): as the sequence (P08637 17-208 limits assumed) above, with F160V counted along it
Description: SPR, Fc captured on Protein A, receptor injected; 1:1 Langmuir kinetic fit. As for the experimental part: All experiments were performed using a Biacore T100 instrument (GE Healthcare). Protein A (Sigma-Aldrich) (0.1 mg/mL, 10 mM sodium acetate, pH 4.5) was immobilized at a density of 1000 response units (RU) in flow cells 1 and 2 of a CM5 sensor chip via standard amine-coupling procedure according to the manufacturer's instructions (GE Healthcare), using HBS-X buffer (10 mM HEPES, 150 mM NaCl, 0.05% Tween 20) as the running buffer and a flow rate of […]. Flow cell 1 was used as negative control, while flow cell 2 was used to capture wild type or hyper-glycosylated Fc variants in PBS at a density of 100-150 RU. […] Between experiments, the sensor chip surface was regenerated by 2 injections of 15 μL each of 20 mM HCl. Experimental data were corrected for instrument and bulk artifacts by referencing to a control sensor chip surface using Biacore T100 evaluation software 2.0.3 (GE Healthcare). Kinetic parameters of binding were determined using the same software and a 1:1 Langmuir binding model for all FcγRIIIA-158V interactions.
Consider B1, for which the affinity, expressed as Kd, was 57 nM.
Take B2: the Kd was 15.5 nM.
Still for that read-out and setting: as for B3, the figure is 20.2 nM; as for B4, 27.5 nM.
Take B5: binding was put at a Kd of 2.1 nM.
Molecule B6 registered a Kd of 20.8 nM.

The next assay concerns the target T4, FcγRIIIA having a Phe residue at polymorphic site 158 (human, UniProt P08637 17-208, limits assumed).
T4 construct: also called FcγRIIIA-158F; CD16a; not shown: His-tag fused to the C-terminus
Description: ratio of SPR KDs, reference Fc-WT.
Consider B1, for which the “fold decrease in binding (Fc-variant KD/Fc-WT KD)” value (“fold decrease in binding” for short) is 11.8 fold.
With B2, the “fold decrease in binding” value came to 3.9 fold.
The same measure, in the same setting: as for B3, the figure is 6.9 fold.
For B4, the “fold decrease in binding” value was 12.4 fold.

Another assay deals with T3, FcγRIIIA having a Val residue at …. Description: ratio of SPR KDs, reference Fc-WT.
Take B1: the “fold decrease in binding” value is 17.8 fold.
For B2, the “fold decrease in binding” value worked out at 4.8 fold.
Take B3: the “fold decrease in binding” value was determined as 6.3 fold.
On the same count and under the same terms, as for B4, the figure is 8.6 fold.

The target in the next assay is T1, FcγRIIB. Description: ratio of SPR KDs, reference Fc-WT.
For the molecule B1, the “fold decrease in binding” value was 12.2 fold.
On to B2, for which the “fold decrease in binding” value was found to be 37.8 fold.
The same measure, in the same setting: as for B3, the figure is 60.9 fold.
In the case of B4, the “fold decrease in binding” value was found to be 30.1 fold.

A further assay concerns the target T2, FcγRIIA. In words: ratio of SPR KDs, reference Fc-WT.
Consider B1, for which the “fold decrease in binding” value stood at 11.2 fold.
For B2, the “fold decrease in binding” value came out at 10.7 fold.
On the same count and under the same terms, then B3, with 10.7 fold; and B4, with 7.6 fold.

The next assay has as its target T4, FcγRIIIA having a Phe residue at …. Description: SPR, Fc captured on Protein A, receptor injected; steady-state analysis.
For B1, the Kd is 151 nM.
B2 gave a dissociation constant (Kd) of 50.1 nM.
In turn, B3 had a Kd of 87.8 nM.
B4: the Kd was 160 nM.
With B6, the Kd was 66.1 nM.

For the next assay, the target named is T1, FcγRIIB. Described as above.
In turn, B1 yielded a Kd of 20800 nM.
Same read-out and setting: as for B2, the figure is 64200 nM.
On the same count and under the same terms, then B3, with 104000 nM; and B4, with 51200 nM.
As for B5, the dissociation constant Kd worked out at 7100 nM.
B6 came in with a Kd of 18800 nM.

For another assay, the target named is T2, FcγRIIA. The description is as above.
Regarding B1, the Kd was found to be 13400 nM.
Still for that read-out and setting: as for B2, the figure is 12800 nM; as for B3, 12800 nM.
For B4, the Kd worked out at 9100 nM.
